Biological target: recombinant full-length SARS-CoV-2 spike protein with a C-terminal 8x His-tag (SARS-CoV-2) (UniProt P0DTC2)
Experiment: BLI; spike with C-terminal 8x His-tag (0.35 μM) immobilised on nickel nitrilotriacetic acid biosensors; αIIbβ3 in solution, zero to 0.51 μM (68 to 512 nM); 20 mM tris pH 7.4, 137 mM NaCl, 1 mM MgCl2, 1 mM MnCl2, 1 mM CaCl2, 50% glycerol plus 1X Octet Kinetics Buffer; 25 °C; global fit

Substance: platelet-derived purified human αIIbβ3 protein (from UniProt P05106 27-788) (complex)
- Kd: 47 nM
